# Results as given in the Human Domainome abundance scans (Beltran et al. 2025).
# ± gives the uncertainty stated by the source.
# B1: Far upstream element-binding protein 1, residues 184 to 257; numbered along this chain, Q96AE4 (parent)
# chain: GNAVQEIMIPASKAGLVIGKGGETIKQLQERAGVKMVMIQDGPQNTGADKPLRITGDPYKVQQAKEMVLELIRD
# Variants of: B1
# Test: abundance fitness (aPCA) (normalised: wild type 0, dead -1); higher = more abundant; growth selection in yeast, the domain comes from the species named
# Conditions: Homo sapiens
row,Variant,abundance fitness
1,GNAVGEIMIPASKAGLVIGKGGETIKQLQERAGVKMVMIQDGPQNTGADKPLRITGDPYKVQQAKEMVLELIRD,-0.036 ± 0.026
2,GNAVHEIMIPASKAGLVIGKGGETIKQLQERAGVKMVMIQDGPQNTGADKPLRITGDPYKVQQAKEMVLELIRD,-0.108 ± 0.058
3,GNAVLEIMIPASKAGLVIGKGGETIKQLQERAGVKMVMIQDGPQNTGADKPLRITGDPYKVQQAKEMVLELIRD,-0.029 ± 0.029
4,GNAVNEIMIPASKAGLVIGKGGETIKQLQERAGVKMVMIQDGPQNTGADKPLRITGDPYKVQQAKEMVLELIRD,-0.083 ± 0.051
5,GNAVFEIMIPASKAGLVIGKGGETIKQLQERAGVKMVMIQDGPQNTGADKPLRITGDPYKVQQAKEMVLELIRD,-0.063 ± 0.051
6,GNAVVEIMIPASKAGLVIGKGGETIKQLQERAGVKMVMIQDGPQNTGADKPLRITGDPYKVQQAKEMVLELIRD,0.04 ± 0.029
7,GNAVCEIMIPASKAGLVIGKGGETIKQLQERAGVKMVMIQDGPQNTGADKPLRITGDPYKVQQAKEMVLELIRD,-0.006 ± 0.045
8,GNAVPEIMIPASKAGLVIGKGGETIKQLQERAGVKMVMIQDGPQNTGADKPLRITGDPYKVQQAKEMVLELIRD,-0.726 ± 0.045
9,GNAVTEIMIPASKAGLVIGKGGETIKQLQERAGVKMVMIQDGPQNTGADKPLRITGDPYKVQQAKEMVLELIRD,0.013 ± 0.031
10,GNAVYEIMIPASKAGLVIGKGGETIKQLQERAGVKMVMIQDGPQNTGADKPLRITGDPYKVQQAKEMVLELIRD,-0.003 ± 0.051
11,GNAVEEIMIPASKAGLVIGKGGETIKQLQERAGVKMVMIQDGPQNTGADKPLRITGDPYKVQQAKEMVLELIRD,0.128 ± 0.034
12,GNAVREIMIPASKAGLVIGKGGETIKQLQERAGVKMVMIQDGPQNTGADKPLRITGDPYKVQQAKEMVLELIRD,0.013 ± 0.025
13,GNAVMEIMIPASKAGLVIGKGGETIKQLQERAGVKMVMIQDGPQNTGADKPLRITGDPYKVQQAKEMVLELIRD,0.056 ± 0.035
14,GNAVDEIMIPASKAGLVIGKGGETIKQLQERAGVKMVMIQDGPQNTGADKPLRITGDPYKVQQAKEMVLELIRD,0.021 ± 0.041
15,GNAVIEIMIPASKAGLVIGKGGETIKQLQERAGVKMVMIQDGPQNTGADKPLRITGDPYKVQQAKEMVLELIRD,0.014 ± 0.05
16,GNAVAEIMIPASKAGLVIGKGGETIKQLQERAGVKMVMIQDGPQNTGADKPLRITGDPYKVQQAKEMVLELIRD,-0.007 ± 0.03
17,GNAVKEIMIPASKAGLVIGKGGETIKQLQERAGVKMVMIQDGPQNTGADKPLRITGDPYKVQQAKEMVLELIRD,0.016 ± 0.036
18,GNAVQEIDIPASKAGLVIGKGGETIKQLQERAGVKMVMIQDGPQNTGADKPLRITGDPYKVQQAKEMVLELIRD,-0.23 ± 0.046
19,GNAVQEIHIPASKAGLVIGKGGETIKQLQERAGVKMVMIQDGPQNTGADKPLRITGDPYKVQQAKEMVLELIRD,-0.102 ± 0.052
20,GNAVQEIEIPASKAGLVIGKGGETIKQLQERAGVKMVMIQDGPQNTGADKPLRITGDPYKVQQAKEMVLELIRD,-0.166 ± 0.039
21,GNAVQEIAIPASKAGLVIGKGGETIKQLQERAGVKMVMIQDGPQNTGADKPLRITGDPYKVQQAKEMVLELIRD,-0.124 ± 0.032
22,GNAVQEICIPASKAGLVIGKGGETIKQLQERAGVKMVMIQDGPQNTGADKPLRITGDPYKVQQAKEMVLELIRD,-0.339 ± 0.047
23,GNAVQEIGIPASKAGLVIGKGGETIKQLQERAGVKMVMIQDGPQNTGADKPLRITGDPYKVQQAKEMVLELIRD,-0.151 ± 0.027
24,GNAVQEAMIPASKAGLVIGKGGETIKQLQERAGVKMVMIQDGPQNTGADKPLRITGDPYKVQQAKEMVLELIRD,-0.674 ± 0.041
25,GNAVQECMIPASKAGLVIGKGGETIKQLQERAGVKMVMIQDGPQNTGADKPLRITGDPYKVQQAKEMVLELIRD,-0.394 ± 0.045

row,Variant,abundance fitness
1,GNAVQEFMIPASKAGLVIGKGGETIKQLQERAGVKMVMIQDGPQNTGADKPLRITGDPYKVQQAKEMVLELIRD,-0.229 ± 0.055
2,GNAVQEYMIPASKAGLVIGKGGETIKQLQERAGVKMVMIQDGPQNTGADKPLRITGDPYKVQQAKEMVLELIRD,-0.597 ± 0.058
3,GNAVQETMIPASKAGLVIGKGGETIKQLQERAGVKMVMIQDGPQNTGADKPLRITGDPYKVQQAKEMVLELIRD,-0.564 ± 0.045
4,GNAVQERMIPASKAGLVIGKGGETIKQLQERAGVKMVMIQDGPQNTGADKPLRITGDPYKVQQAKEMVLELIRD,-0.861 ± 0.035
5,GNAVQEEMIPASKAGLVIGKGGETIKQLQERAGVKMVMIQDGPQNTGADKPLRITGDPYKVQQAKEMVLELIRD,-0.646 ± 0.041
6,GNAVQELMIPASKAGLVIGKGGETIKQLQERAGVKMVMIQDGPQNTGADKPLRITGDPYKVQQAKEMVLELIRD,-0.026 ± 0.03
7,GNAVQEDMIPASKAGLVIGKGGETIKQLQERAGVKMVMIQDGPQNTGADKPLRITGDPYKVQQAKEMVLELIRD,-1.02 ± 0.076
8,GNAVQEQMIPASKAGLVIGKGGETIKQLQERAGVKMVMIQDGPQNTGADKPLRITGDPYKVQQAKEMVLELIRD,-0.559 ± 0.047
9,GNAVQENMIPASKAGLVIGKGGETIKQLQERAGVKMVMIQDGPQNTGADKPLRITGDPYKVQQAKEMVLELIRD,-1.09 ± 0.1
10,GNAVQEGMIPASKAGLVIGKGGETIKQLQERAGVKMVMIQDGPQNTGADKPLRITGDPYKVQQAKEMVLELIRD,-0.885 ± 0.035
11,GNAVQEWMIPASKAGLVIGKGGETIKQLQERAGVKMVMIQDGPQNTGADKPLRITGDPYKVQQAKEMVLELIRD,-0.651 ± 0.04
12,GNAVQEVMIPASKAGLVIGKGGETIKQLQERAGVKMVMIQDGPQNTGADKPLRITGDPYKVQQAKEMVLELIRD,-0.045 ± 0.03
13,GNAVQEPMIPASKAGLVIGKGGETIKQLQERAGVKMVMIQDGPQNTGADKPLRITGDPYKVQQAKEMVLELIRD,-1.14 ± 0.079
14,GNALQEIMIPASKAGLVIGKGGETIKQLQERAGVKMVMIQDGPQNTGADKPLRITGDPYKVQQAKEMVLELIRD,-0.065 ± 0.03
15,GNAQQEIMIPASKAGLVIGKGGETIKQLQERAGVKMVMIQDGPQNTGADKPLRITGDPYKVQQAKEMVLELIRD,0.009 ± 0.04
16,GNATQEIMIPASKAGLVIGKGGETIKQLQERAGVKMVMIQDGPQNTGADKPLRITGDPYKVQQAKEMVLELIRD,0.029 ± 0.036
17,GNAKQEIMIPASKAGLVIGKGGETIKQLQERAGVKMVMIQDGPQNTGADKPLRITGDPYKVQQAKEMVLELIRD,0.027 ± 0.037
18,GNAGQEIMIPASKAGLVIGKGGETIKQLQERAGVKMVMIQDGPQNTGADKPLRITGDPYKVQQAKEMVLELIRD,-0.146 ± 0.026
19,GNANQEIMIPASKAGLVIGKGGETIKQLQERAGVKMVMIQDGPQNTGADKPLRITGDPYKVQQAKEMVLELIRD,0.073 ± 0.048
20,GNASQEIMIPASKAGLVIGKGGETIKQLQERAGVKMVMIQDGPQNTGADKPLRITGDPYKVQQAKEMVLELIRD,-0.18 ± 0.033
21,GNAHQEIMIPASKAGLVIGKGGETIKQLQERAGVKMVMIQDGPQNTGADKPLRITGDPYKVQQAKEMVLELIRD,0.031 ± 0.047
22,GNADQEIMIPASKAGLVIGKGGETIKQLQERAGVKMVMIQDGPQNTGADKPLRITGDPYKVQQAKEMVLELIRD,-0.063 ± 0.043
23,GNARQEIMIPASKAGLVIGKGGETIKQLQERAGVKMVMIQDGPQNTGADKPLRITGDPYKVQQAKEMVLELIRD,-0.053 ± 0.026
24,GNAYQEIMIPASKAGLVIGKGGETIKQLQERAGVKMVMIQDGPQNTGADKPLRITGDPYKVQQAKEMVLELIRD,-0.013 ± 0.05
25,GNAWQEIMIPASKAGLVIGKGGETIKQLQERAGVKMVMIQDGPQNTGADKPLRITGDPYKVQQAKEMVLELIRD,-0.105 ± 0.034

row,Variant,abundance fitness
1,GNAMQEIMIPASKAGLVIGKGGETIKQLQERAGVKMVMIQDGPQNTGADKPLRITGDPYKVQQAKEMVLELIRD,0.11 ± 0.037
2,GNAIQEIMIPASKAGLVIGKGGETIKQLQERAGVKMVMIQDGPQNTGADKPLRITGDPYKVQQAKEMVLELIRD,0.097 ± 0.042
3,GNACQEIMIPASKAGLVIGKGGETIKQLQERAGVKMVMIQDGPQNTGADKPLRITGDPYKVQQAKEMVLELIRD,-0.069 ± 0.043
4,GNAEQEIMIPASKAGLVIGKGGETIKQLQERAGVKMVMIQDGPQNTGADKPLRITGDPYKVQQAKEMVLELIRD,0.051 ± 0.034
5,GNAFQEIMIPASKAGLVIGKGGETIKQLQERAGVKMVMIQDGPQNTGADKPLRITGDPYKVQQAKEMVLELIRD,0.112 ± 0.047
6,GNAPQEIMIPASKAGLVIGKGGETIKQLQERAGVKMVMIQDGPQNTGADKPLRITGDPYKVQQAKEMVLELIRD,-0.56 ± 0.048
7,GNAVQAIMIPASKAGLVIGKGGETIKQLQERAGVKMVMIQDGPQNTGADKPLRITGDPYKVQQAKEMVLELIRD,-0.12 ± 0.031
8,GNAVQFIMIPASKAGLVIGKGGETIKQLQERAGVKMVMIQDGPQNTGADKPLRITGDPYKVQQAKEMVLELIRD,-0.217 ± 0.046
9,GNAVQGIMIPASKAGLVIGKGGETIKQLQERAGVKMVMIQDGPQNTGADKPLRITGDPYKVQQAKEMVLELIRD,-0.358 ± 0.028
10,GNAVQWIMIPASKAGLVIGKGGETIKQLQERAGVKMVMIQDGPQNTGADKPLRITGDPYKVQQAKEMVLELIRD,-0.082 ± 0.033
11,GNAVQHIMIPASKAGLVIGKGGETIKQLQERAGVKMVMIQDGPQNTGADKPLRITGDPYKVQQAKEMVLELIRD,-0.086 ± 0.045
12,GNAVQVIMIPASKAGLVIGKGGETIKQLQERAGVKMVMIQDGPQNTGADKPLRITGDPYKVQQAKEMVLELIRD,-0.028 ± 0.031
13,GNAVQYIMIPASKAGLVIGKGGETIKQLQERAGVKMVMIQDGPQNTGADKPLRITGDPYKVQQAKEMVLELIRD,-0.232 ± 0.048
14,GNAVQPIMIPASKAGLVIGKGGETIKQLQERAGVKMVMIQDGPQNTGADKPLRITGDPYKVQQAKEMVLELIRD,-0.809 ± 0.053
15,GNAVQMIMIPASKAGLVIGKGGETIKQLQERAGVKMVMIQDGPQNTGADKPLRITGDPYKVQQAKEMVLELIRD,-0.078 ± 0.042
16,GNAVQLIMIPASKAGLVIGKGGETIKQLQERAGVKMVMIQDGPQNTGADKPLRITGDPYKVQQAKEMVLELIRD,-0.187 ± 0.03
17,GNAVQSIMIPASKAGLVIGKGGETIKQLQERAGVKMVMIQDGPQNTGADKPLRITGDPYKVQQAKEMVLELIRD,-0.185 ± 0.031
18,GNAVQRIMIPASKAGLVIGKGGETIKQLQERAGVKMVMIQDGPQNTGADKPLRITGDPYKVQQAKEMVLELIRD,-0.145 ± 0.026
19,GNAVQDIMIPASKAGLVIGKGGETIKQLQERAGVKMVMIQDGPQNTGADKPLRITGDPYKVQQAKEMVLELIRD,-0.1 ± 0.043
20,GNAVQCIMIPASKAGLVIGKGGETIKQLQERAGVKMVMIQDGPQNTGADKPLRITGDPYKVQQAKEMVLELIRD,-0.366 ± 0.044
21,GNAVQIIMIPASKAGLVIGKGGETIKQLQERAGVKMVMIQDGPQNTGADKPLRITGDPYKVQQAKEMVLELIRD,-0.101 ± 0.047
22,GNAVQNIMIPASKAGLVIGKGGETIKQLQERAGVKMVMIQDGPQNTGADKPLRITGDPYKVQQAKEMVLELIRD,-0.146 ± 0.047
23,GNAVQQIMIPASKAGLVIGKGGETIKQLQERAGVKMVMIQDGPQNTGADKPLRITGDPYKVQQAKEMVLELIRD,0.024 ± 0.038
24,GNAVQTIMIPASKAGLVIGKGGETIKQLQERAGVKMVMIQDGPQNTGADKPLRITGDPYKVQQAKEMVLELIRD,-0.014 ± 0.035
